Data published in article PMC7092865.
Where two headings read alike, the source gives them in different places.

Tests used:
[1] = target: T1, SUDc5b (SARS coronavirus TOR2, UniProt P0C6U8 1207-1380); test: zone-interference gel electrophoresis
[2] = target: T2, SUD full-length (Nsp3c) (SARS coronavirus TOR2, UniProt P0C6U8 1167-1544); test: EMSA
[3] = target: T1, SUDc5b; test: EMSA
[4] = target: T1, SUDc5b; test: EMSA; remark: listed apart in the source
[5] = target: T2, SUD full-length (Nsp3c); test: EMSA; remark: listed apart in the source

B1: 2(+) (ssDNA)
DNA: CATCTATGAGGGGGGTTTACTATC
Kd [1]: ~1000 nM

B2: 3(-) (ssDNA)
DNA: ATGTAATGCGGGGGGCACTACGTT
Kd [1]: ~1000 nM

B3: bbc3-G14 RNA (ssRNA)
RNA: GGGUGACACUGGGGGGGGGGGGGGCUCUCCUCUCGGUGCUCCUUCACUC
binding result [2]: binds | binding result [3]: binds

B4: bbc3-A14 RNA (ssRNA)
RNA: GGGUGACACUAAAAAAAAAAAAAACUCUCCUCUCGGUGCUCCUUCACUC
binding result [4]: no binding | binding result [5]: no binding
